These results are taken from patent US20100028993A1.

One may read the EC50 as the concentration needed to bring the measured effect to its halfway point. Lower therefore signals a more potent agent.

In assay [1] the target is growth hormone receptor (GHR) on GHR-expressing NIH 3T3-L1 cells (Mus musculus (Mouse)) (UniProt P16882). Put plainly: radioreceptor competition assay; displacement of [125I]-hGH from monolayers of GHR-expressing NIH 3T3-L1 cells.
Assay [2] deals with anti-hGH-(SO)10 antibodies (1:10,000 serum dilution). The experiment in a line: competition ELISA; hGH-(SO)10-coated plates, anti-hGH-(SO)10 serum 1:10,000, 100 ug/ml (SO)10 as competitive inhibitor. A general note: In an ELISA, binding on a coated surface is turned into a signal by an enzyme label.

Square brackets hold non-standard residues; d marks the D form. Ends that are not written are not given here. Hyp = O=C(O)[C@@H]1C[C@@H](O)CN1

UniProt P16882, sequence (P16882 25-650 limits assumed, form in doubt): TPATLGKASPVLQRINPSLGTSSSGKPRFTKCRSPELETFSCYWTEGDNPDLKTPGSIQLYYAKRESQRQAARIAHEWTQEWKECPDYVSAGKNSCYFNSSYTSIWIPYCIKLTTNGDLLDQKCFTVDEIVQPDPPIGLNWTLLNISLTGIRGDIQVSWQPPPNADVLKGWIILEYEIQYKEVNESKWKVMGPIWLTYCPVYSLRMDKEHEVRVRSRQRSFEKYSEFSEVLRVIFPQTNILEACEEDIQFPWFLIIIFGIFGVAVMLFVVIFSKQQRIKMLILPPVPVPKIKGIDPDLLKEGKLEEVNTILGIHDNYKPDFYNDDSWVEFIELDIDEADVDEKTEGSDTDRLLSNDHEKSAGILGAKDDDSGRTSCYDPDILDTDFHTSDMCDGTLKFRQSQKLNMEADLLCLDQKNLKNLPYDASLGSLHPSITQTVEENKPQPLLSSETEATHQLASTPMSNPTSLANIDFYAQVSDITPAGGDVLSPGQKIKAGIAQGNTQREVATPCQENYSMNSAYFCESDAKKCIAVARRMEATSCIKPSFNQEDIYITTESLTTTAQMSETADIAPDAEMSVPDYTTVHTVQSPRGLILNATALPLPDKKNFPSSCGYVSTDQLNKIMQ

In turn, “hGH-(SP)10-EGFP fusion glycoprotein (ligand)” had an EC50 in assay [1] of 10 nM.
Take S[Hyp]S[Hyp]S[Hyp]S[Hyp]S[Hyp]S[Hyp]S[Hyp]S[Hyp]S[Hyp]S[Hyp] (not fully specified) [purified (SP)10 / (SO)10 glycomodule]: the percent inhibition in assay [2] is 5%.
